Among the data in article PMC9402439 are C-strand synthesis activity of CST–Polα–primase from HEK cells relative to recombinant human Polα–primase from insect cells, high concentrations of enzyme and template DNA (5 µM, 15×TEL), C-strand synthesis activity of CST–Polα–primase from HEK cells relative to recombinant human Polα–primase from insect cells, standard reaction conditions (100 nM template) and stoichiometry in the purified preparation (POLA per CST) values, retold here.

Experiment [1] addresses human CST (CTC1–STN1–TEN1) heterotrimer, recombinant, from HEK293T cells (human) (UniProt Q2NKJ3).
Experiment [2] has the same target. As to the kind of experiment: co-IP; successive anti-FLAG and anti-HA immunopurifications of 3×FLAG-CTC1, Myc-STN1 and HA-TEN1 from transfected HEK293T cells, 150 mM NaCl in the wash and elution buffers; subunits found by western blot and quantified against insect-cell standards. Background: Immunoblotting shows a protein as a band on a membrane.

Chain of human CST (CTC1–STN1–TEN1) heterotrimer, recombinant, from HEK293T cells (human) (Q2NKJ3 whole entry, chain 1 of 3): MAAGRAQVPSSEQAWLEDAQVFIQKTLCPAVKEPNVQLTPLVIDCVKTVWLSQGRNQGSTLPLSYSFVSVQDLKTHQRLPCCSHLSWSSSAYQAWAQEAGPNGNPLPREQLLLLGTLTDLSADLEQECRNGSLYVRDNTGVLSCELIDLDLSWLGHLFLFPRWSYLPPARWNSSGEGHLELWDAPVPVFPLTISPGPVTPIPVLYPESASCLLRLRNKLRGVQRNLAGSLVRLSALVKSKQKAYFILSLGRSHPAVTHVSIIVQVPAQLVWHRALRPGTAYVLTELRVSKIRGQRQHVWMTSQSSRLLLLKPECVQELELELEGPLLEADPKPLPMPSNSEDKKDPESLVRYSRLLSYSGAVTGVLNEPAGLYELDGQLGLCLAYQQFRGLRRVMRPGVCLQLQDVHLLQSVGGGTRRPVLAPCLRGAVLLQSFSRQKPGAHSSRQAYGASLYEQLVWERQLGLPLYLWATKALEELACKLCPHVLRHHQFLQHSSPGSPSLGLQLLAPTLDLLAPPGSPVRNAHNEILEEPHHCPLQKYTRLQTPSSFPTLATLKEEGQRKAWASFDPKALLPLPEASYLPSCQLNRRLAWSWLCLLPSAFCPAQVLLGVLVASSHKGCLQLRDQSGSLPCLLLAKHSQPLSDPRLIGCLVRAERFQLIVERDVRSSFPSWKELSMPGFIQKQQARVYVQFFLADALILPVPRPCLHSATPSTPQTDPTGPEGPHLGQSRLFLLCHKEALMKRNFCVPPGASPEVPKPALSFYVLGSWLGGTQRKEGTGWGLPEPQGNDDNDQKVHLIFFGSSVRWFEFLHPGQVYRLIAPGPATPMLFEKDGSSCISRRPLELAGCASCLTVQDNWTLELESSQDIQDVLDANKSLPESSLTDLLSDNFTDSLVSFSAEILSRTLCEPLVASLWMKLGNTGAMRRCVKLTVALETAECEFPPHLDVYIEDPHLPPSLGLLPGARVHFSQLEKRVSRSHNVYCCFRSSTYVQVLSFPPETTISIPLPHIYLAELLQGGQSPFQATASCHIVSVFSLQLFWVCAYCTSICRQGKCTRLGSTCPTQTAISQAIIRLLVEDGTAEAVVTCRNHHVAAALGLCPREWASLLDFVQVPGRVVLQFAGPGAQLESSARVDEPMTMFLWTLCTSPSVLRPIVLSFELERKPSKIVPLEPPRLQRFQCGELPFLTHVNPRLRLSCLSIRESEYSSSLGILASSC
Chain of human CST (CTC1–STN1–TEN1) heterotrimer, recombinant, from HEK293T cells (human) (Q9H668 whole entry, chain 2 of 3, further chain): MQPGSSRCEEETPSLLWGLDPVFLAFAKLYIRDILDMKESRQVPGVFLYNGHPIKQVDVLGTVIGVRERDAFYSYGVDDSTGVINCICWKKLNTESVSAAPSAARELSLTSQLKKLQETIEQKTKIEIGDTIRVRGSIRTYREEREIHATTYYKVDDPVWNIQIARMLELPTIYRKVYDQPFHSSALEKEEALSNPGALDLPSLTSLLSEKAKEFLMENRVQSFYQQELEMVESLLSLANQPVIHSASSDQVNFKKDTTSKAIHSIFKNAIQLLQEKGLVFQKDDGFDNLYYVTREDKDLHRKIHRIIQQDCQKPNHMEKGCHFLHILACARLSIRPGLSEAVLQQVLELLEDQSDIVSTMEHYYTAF
Chain of human CST (CTC1–STN1–TEN1) heterotrimer, recombinant, from HEK293T cells (human) (Q86WV5 whole entry, chain 3 of 3, further chain): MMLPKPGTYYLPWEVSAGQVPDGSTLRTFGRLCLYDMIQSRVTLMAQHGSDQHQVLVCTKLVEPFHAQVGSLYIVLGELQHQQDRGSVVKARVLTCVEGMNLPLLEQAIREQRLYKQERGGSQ
Chain of Polα–primase (DNA polymerase α-primase), endogenous human enzyme, four subunits (Q14181 whole entry, looked up, tested part not stated): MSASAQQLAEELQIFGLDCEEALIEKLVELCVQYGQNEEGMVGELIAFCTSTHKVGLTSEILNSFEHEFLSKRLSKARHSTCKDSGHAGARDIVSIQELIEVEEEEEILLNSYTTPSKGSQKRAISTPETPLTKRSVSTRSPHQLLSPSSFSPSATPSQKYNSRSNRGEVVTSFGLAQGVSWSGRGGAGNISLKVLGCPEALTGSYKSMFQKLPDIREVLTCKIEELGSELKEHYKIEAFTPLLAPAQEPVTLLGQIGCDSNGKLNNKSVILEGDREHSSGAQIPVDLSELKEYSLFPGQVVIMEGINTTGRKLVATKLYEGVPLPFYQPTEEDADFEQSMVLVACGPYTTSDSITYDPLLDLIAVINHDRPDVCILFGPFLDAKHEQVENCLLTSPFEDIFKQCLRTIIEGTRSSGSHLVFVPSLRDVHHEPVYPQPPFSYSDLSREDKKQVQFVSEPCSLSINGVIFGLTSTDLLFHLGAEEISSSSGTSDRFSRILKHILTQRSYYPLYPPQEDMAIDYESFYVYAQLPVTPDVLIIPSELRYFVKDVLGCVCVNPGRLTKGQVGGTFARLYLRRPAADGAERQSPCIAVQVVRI
Chain of Polα–primase (DNA polymerase α-primase), endogenous human enzyme, four subunits (P09884 whole entry, looked up, tested part not stated): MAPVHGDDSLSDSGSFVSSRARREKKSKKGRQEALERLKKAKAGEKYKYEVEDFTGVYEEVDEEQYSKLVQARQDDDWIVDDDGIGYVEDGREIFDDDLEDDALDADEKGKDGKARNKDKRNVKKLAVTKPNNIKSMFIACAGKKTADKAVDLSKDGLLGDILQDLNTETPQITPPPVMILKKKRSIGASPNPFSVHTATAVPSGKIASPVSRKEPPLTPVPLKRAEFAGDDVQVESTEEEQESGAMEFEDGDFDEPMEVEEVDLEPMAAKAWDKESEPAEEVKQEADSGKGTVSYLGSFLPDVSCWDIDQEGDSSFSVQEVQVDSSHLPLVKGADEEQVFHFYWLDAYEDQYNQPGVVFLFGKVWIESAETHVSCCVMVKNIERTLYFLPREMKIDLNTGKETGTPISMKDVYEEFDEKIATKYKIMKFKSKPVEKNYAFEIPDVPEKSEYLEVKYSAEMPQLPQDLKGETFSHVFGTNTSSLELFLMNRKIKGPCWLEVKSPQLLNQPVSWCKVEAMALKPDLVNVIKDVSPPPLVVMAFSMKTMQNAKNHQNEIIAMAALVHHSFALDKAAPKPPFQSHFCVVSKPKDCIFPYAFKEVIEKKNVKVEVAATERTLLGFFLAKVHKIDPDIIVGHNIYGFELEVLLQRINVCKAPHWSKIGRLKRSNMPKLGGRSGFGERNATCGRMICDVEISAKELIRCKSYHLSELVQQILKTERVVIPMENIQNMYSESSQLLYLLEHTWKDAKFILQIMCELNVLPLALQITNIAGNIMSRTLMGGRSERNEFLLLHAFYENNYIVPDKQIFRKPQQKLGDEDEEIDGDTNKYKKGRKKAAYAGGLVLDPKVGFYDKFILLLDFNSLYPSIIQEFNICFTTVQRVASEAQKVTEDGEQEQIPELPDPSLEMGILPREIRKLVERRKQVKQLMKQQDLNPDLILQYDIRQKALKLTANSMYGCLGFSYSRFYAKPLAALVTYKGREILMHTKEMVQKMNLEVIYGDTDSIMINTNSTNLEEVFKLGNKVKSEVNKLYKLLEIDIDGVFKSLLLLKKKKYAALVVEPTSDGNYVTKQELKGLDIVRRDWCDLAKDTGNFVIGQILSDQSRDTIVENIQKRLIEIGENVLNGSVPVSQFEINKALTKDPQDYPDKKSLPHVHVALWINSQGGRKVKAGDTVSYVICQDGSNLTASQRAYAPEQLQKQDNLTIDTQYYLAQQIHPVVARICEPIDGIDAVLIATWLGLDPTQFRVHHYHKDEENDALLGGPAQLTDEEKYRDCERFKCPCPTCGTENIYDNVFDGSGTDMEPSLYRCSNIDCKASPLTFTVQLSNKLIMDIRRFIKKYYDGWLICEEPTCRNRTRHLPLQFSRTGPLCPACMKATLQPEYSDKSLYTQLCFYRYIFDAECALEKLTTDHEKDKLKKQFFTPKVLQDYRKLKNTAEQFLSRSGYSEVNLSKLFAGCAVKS

For the substance “Polα–primase (DNA polymerase α-primase), endogenous human enzyme, four subunits (from UniProt P09884 1-1462; Q14181 1-598) (complex)”, in experiment [1], the C-strand synthesis activity of CST–Polα–primase from HEK cells relative to recombinant human Polα–primase from insect cells, high concentrations of enzyme and template DNA (5 µM, 15×TEL) is more than 10 fold; the C-strand synthesis activity of CST–Polα–primase from HEK cells relative to recombinant human Polα–primase from insect cells, standard reaction conditions (100 nM template) is more than 10000 fold. Also, the stoichiometry in the purified preparation (POLA per CST) in experiment [2] was found to be 0.21 POLA per CST.
